According to patent publication US20130287807A1, “COMPOUNDS FOR TREATING SYMPTOMS ASSOCIATED WITH PARKINSON'S DISEASE” (priority 2008, published 2013):

How the values were obtained:
[1] = tested on: monoclonal antibody MV-003; test: In vitro binding assay (ELISA), BSA-coupled peptides, parental antibody MV-003; set-up: species or system BalbC mice; conditions: Table 1A; peptide-BSA on plate, compared to original epitope
Protocol: Peptides derived from Phage Display as well as variants thereof were coupled to BSA and bound to ELISA plates (1 μM; as indicated in the respective figures) and subsequently incubated with the monoclonal antibody that was used for the screening procedure to analyse binding capacity of identified peptides.
Legend to Table 1A: the binding capacity is coded by the following binding code: 1:X describes the dilution factor of the parental AB.

[2] = tested on: monoclonal antibody MV-003; test: In vitro inhibition assay (ELISA), MV-003 binding to original epitope; set-up: species or system BalbC mice; conditions: Table 2A; OD at 10 ug peptide compared to original peptide
Protocol: Different amounts of peptides (concentrations ranging from 10 μg to 0.08 μg; serial dilutions; for MV-002: concentrations ranging from 5 μg to 0.03 μg; serial dilutions), derived from Phage Display were incubated with the monoclonal antibody that was used for the screening procedure. Peptides diminishing subsequent binding of the antibody to the original epitope coated on ELISA plates were considered as inhibiting in this assay.
Legend to Table 2A: the inhibition capacity is coded by the following code: Weak inhibition means more peptide is required to lower AB binding than with the original epitope; strong inhibition means similar peptide amounts are required for mimotope and original epitope for lowering AB binding. Mimotopes are compared to the original peptide as standard. OD at 10 ug peptide used in the assay is used to calculate the competition capacity compared to original peptide.

[3] = tested on: Aβ/truncated/modified forms; test: In vivo characterisation of mimotopes: detection of Aβ/truncated/modified forms; set-up: species or system C57/B16 mice; key: +: All peptides listed in Table 5 mount specific immune reactions against full length and/or truncated and modified forms of Aβ or fragments thereof; conditions: Table 5, MV-003 derived mimotopes
Protocol: Inhibiting as well as non-inhibiting peptides were coupled to KLH and injected into mice (wildtype C57/B16 mice; subcutaneous injection into the flank) together with an appropriate adjuvant (aluminium hydroxide). Animals were vaccinated 3-6 times in biweekly intervals and sera were taken biweekly as well. Titers to injected peptides, as well as to an irrelevant peptide were determined with every serum. Furthermore, titers against the recombinant human Aβ protein, and against original peptides were determined respectively. In general sera were analysed by reaction against peptides coupled to Bovine Serum Albumin (BSA) and recombinant full length proteins which were immobilised on ELISA plates. Titers were determined using anti mouse IgG specific antibodies. For detailed results see FIGS. 15, 16 and 17 respectively and FIGS. 23, 24 and 25 respectively.
(§1) Female C57/b16 mice, 5-6 mice per group, were subcutaneously immunized with 30 μg peptide coupled to KLH. Control groups were administered original epitope-KLH conjugates respectively. As adjuvant alum was used (always 1 mg per mouse). […] The in vitro ELISA assay to determine the antibody titer was performed with sera of single mice after each vaccination in a two week interval (see FIGS. 15 and 16 respectively). The wells of the ELISA plate were coated with mimotope-BSA conjugate and an irrelevant peptide-BSA conjugate (negative control). The positive control was performed by reaction of the parental antibody with the respective mimotope-BSA conjugate. The detection was performed with anti-mouse IgG. Additionally, recombinant proteins were immobilised on ELISA plates and sera reacted accordingly. FIGS. 15 to 17 show representative examples for assays used to characterise mimotopes in vivo.
as §1, with “FIGS. 25” for “FIGS. 15”, “and 26” for “and 16”, “respectively). Titers were calculated as OD max/2 in all figures shown.” for “respectively).”, “FIGS. 23, 24 and 25” for “FIGS. 15 to 17”

amyloid plaques = test: Tg2576 AD mouse model: area occupied by amyloid plaques after mimotope vaccination; type: in vivo, Tg2576 mice; conditions: FIG. 18 Gr2 p4381, Gr3 p4390, Gr4 p4715, FIG. 26 Gr2 p4675, FIG. 19 Gr2 p4395
[4] = target: monoclonal antibody MV-003; test: ELISA on peptide-BSA; code 1 = weak binding, OD halfmax 1:<16000
[5] = target: monoclonal antibody MV-003; test: inhibition ELISA, competitor coated original epitope p4373; code 1 = weaker than original epitope
[6] = target: monoclonal antibody MV-003; test: ELISA on peptide-BSA; code 3 = strong binding, OD halfmax 1:>60000
[7] = target: monoclonal antibody MV-004; test: inhibition ELISA, competitor coated original epitope p4372; code 2 = strong inhibition (as original epitope)
[8] = target: monoclonal antibody MV-004; test: ELISA on peptide-BSA; code 3 = strong binding, OD halfmax 1:>96000
[9] = target: monoclonal antibody MV-004; test: ELISA on peptide-BSA; code 1 = weak binding, OD halfmax 1:<24000
[10] = target: monoclonal antibody MV-004; test: inhibition ELISA, competitor coated original epitope p4372; code 1 = weaker than original epitope
[11] = target: DAEFRH-peptide-specific monoclonal antibody (Example 1); test: inhibition ELISA, competitor plate-bound DAEFRH-C-BSA
[12] = target: DAEFRH-peptide-specific monoclonal antibody (Example 1); test: inhibition ELISA, competitor plate-bound DAEFRH-C-BSA; inhibitory capacity
[13] = target: monoclonal antibody MV-001; test: inhibition ELISA, competitor coated original epitope p4371; code 2 = strong inhibition (as original epitope)
[14] = target: monoclonal antibody MV-001; test: ELISA on peptide-BSA; code 3 = strong binding, OD halfmax 1:>20000

## IRWDQPC [p4756]
[1]
  Binding Capacity: 3 (strong binding :>60000)
[2]
  Inhibition Capacity: 1 (Weaker than original epitope (OD of 10 ug peptide below 12 times of original peptide))

## IRYDMAGC [p4399]
[1]
  Binding Capacity: 1 (weak binding :<16000)
[3]
  Detection of Aβ/truncated/modified forms: +

## IRWDTPC [p4395]
Amyloid plaques; Tg2576, 6 s.c. injections monthly, peptide-KLH on ALUM, mAb 3A5 staining, cortex and hippocampus, control group 0.35%
  average occupation (relative area occupied by amyloid deposits in the brain): 0.21%
Amyloid plaques; versus PBS-ALUM control group
  reduction of area occupied by amyloid plaques following mimotope treatment: 38%
[1]
  Binding Capacity: 2 (medium binding :16-60000)
[2]
  Inhibition Capacity: 1 (Weaker than original epitope (OD of 10 ug peptide below 12 times of original peptide))
[3]
  Detection of Aβ/truncated/modified forms: +

## VRWDVYPC [p4396]
[1]
  Binding Capacity: 1 (weak binding :<16000)
[3]
  Detection of Aβ/truncated/modified forms: +

## IRWDGGC [p4793]
[1]
  Binding Capacity: 2 (medium binding :16-60000)
[2]
  Inhibition Capacity: 1 (Weaker than original epitope (OD of 10 ug peptide below 12 times of original peptide))

## IRWDTSLC [p4728]
[1]
  Binding Capacity: 3 (strong binding :>60000)
[2]
  Inhibition Capacity: 2 (strong inhibition (as original epitope; OD of 10 ug peptide below 5 times of original peptide))

## IRYDAPLC [p4397]
[1]
  Binding Capacity: 1 (weak binding :<16000)
[2]
  Inhibition Capacity: 1 (Weaker than original epitope (OD of 10 ug peptide below 12 times of original peptide))
[3]
  Detection of Aβ/truncated/modified forms: +

B1: p4396 (peptide)
peptide: VRWDVYPC
[4]
  dilution factor of the parental antibody at OD halfmax (1:X) (dilutionfactor(1:x)): < 16000

B2: p4397 (peptide)
peptide: IRYDAPLC
[4]
  dilution factor of the parental antibody at OD halfmax (1:X) (dilutionfactor(1:x)): < 16000
[5]
  OD at 10 ug peptide relative to OD of original peptide (inhibition ELISA): 5 to 12 fold

B3: p4399 (peptide)
peptide: IRYDMAGC
[4]
  dilution factor of the parental antibody at OD halfmax (1:X) (dilutionfactor(1:x)): < 16000

B4: p4756 (peptide)
peptide: IRWDQPC
[6]
  dilution factor of the parental antibody at OD halfmax (1:X) (dilutionfactor(1:x)): > 60000
[5]
  OD at 10 ug peptide relative to OD of original peptide (inhibition ELISA): 5 to 12 fold

B5: p4792 (peptide)
peptide: IRWDGC
[4]
  dilution factor of the parental antibody at OD halfmax (1:X) (dilutionfactor(1:x)): < 16000
[5]
  OD at 10 ug peptide relative to OD of original peptide (inhibition ELISA): 5 to 12 fold

B6: p4418 (peptide)
peptide: ERWHEKHC
[7]
  OD at 10 ug peptide as multiple of OD with original peptide: < 2 fold
[8]
  OD halfmax 1:X (dilution factor of the parental antibody at half-maximal OD) (dilutionfactor(1:x)): > 96000

B7: p4419 (peptide)
peptide: EVWHRLQC
[7]
  OD at 10 ug peptide as multiple of OD with original peptide: < 2 fold
[8]
  OD halfmax 1:X (dilution factor of the parental antibody at half-maximal OD) (dilutionfactor(1:x)): > 96000

B8: p4786 (peptide)
peptide: ELWHRAC
[9]
  OD halfmax 1:X (dilution factor of the parental antibody at half-maximal OD) (dilutionfactor(1:x)): < 24000
[10]
  OD at 10 ug peptide as multiple of OD with original peptide: 2 to 5 fold

B9: p4788 (peptide)
peptide: EVWHRGC
[9]
  OD halfmax 1:X (dilution factor of the parental antibody at half-maximal OD) (dilutionfactor(1:x)): < 24000
[10]
  OD at 10 ug peptide as multiple of OD with original peptide: 2 to 5 fold

B10: p4789 (peptide)
peptide: EVWHRHC
[9]
  OD halfmax 1:X (dilution factor of the parental antibody at half-maximal OD) (dilutionfactor(1:x)): < 24000
[10]
  OD at 10 ug peptide as multiple of OD with original peptide: 2 to 5 fold

B11: p4790 (peptide)
peptide: ERWHEKC
[7]
  OD at 10 ug peptide as multiple of OD with original peptide: < 2 fold
[9]
  OD halfmax 1:X (dilution factor of the parental antibody at half-maximal OD) (dilutionfactor(1:x)): < 24000

B12: Peptide 3001 (peptide)
peptide: DKELRIC
[11]
  IC50: < 0.5 µg/mL
[12]
  IC50: < 0.5 µg/mL

B13: Peptide 3002 (peptide)
peptide: DWELRIC
[11]
  IC50: > 0.5 µg/mL
[12]
  IC50: > 0.5 µg/mL

B14: p4715 (peptide)
peptide: TLHEFRHC
[13]
  OD at 10 ug peptide relative to OD of original peptide (inhibition ELISA): < 2 fold
[14]
  OD halfmax 1:X (dilution factor of the parental antibody at half-maximal OD) (dilutionfactor(1:x)): > 20000

B15: Peptide 3005 (peptide)
peptide: YAEFRGC
[11]
  IC50: > 0.5 µg/mL
[12]
  IC50: > 0.5 µg/mL

B16: Peptide 3006 (peptide)
peptide: EAEFRGC
[11]
  IC50: < 0.5 µg/mL
[12]
  IC50: < 0.5 µg/mL

B17: p4753 (peptide)
peptide: TEFRHKAC
[13]
  OD at 10 ug peptide relative to OD of original peptide (inhibition ELISA): < 2 fold
[14]
  OD halfmax 1:X (dilution factor of the parental antibody at half-maximal OD) (dilutionfactor(1:x)): > 20000

B18: p4800 (peptide)
peptide: CSEFKH
[13]
  OD at 10 ug peptide relative to OD of original peptide (inhibition ELISA): < 2 fold
[14]
  OD halfmax 1:X (dilution factor of the parental antibody at half-maximal OD) (dilutionfactor(1:x)): > 20000

B19: p4802 (peptide)
peptide: CHEFRH
[13]
  OD at 10 ug peptide relative to OD of original peptide (inhibition ELISA): < 2 fold
[14]
  OD halfmax 1:X (dilution factor of the parental antibody at half-maximal OD) (dilutionfactor(1:x)): > 20000

B20: p4803 (peptide)
peptide: HEFRHC
[13]
  OD at 10 ug peptide relative to OD of original peptide (inhibition ELISA): < 2 fold
[14]
  OD halfmax 1:X (dilution factor of the parental antibody at half-maximal OD) (dilutionfactor(1:x)): > 20000

B21: p4395 (peptide)
peptide: IRWDTPC
[5]
  OD at 10 ug peptide relative to OD of original peptide (inhibition ELISA): 5 to 12 fold

B22: p4793 (peptide)
peptide: IRWDGGC
[5]
  OD at 10 ug peptide relative to OD of original peptide (inhibition ELISA): 5 to 12 fold

B23: p4417 (peptide)
peptide: EVWHRHQC
[10]
  OD at 10 ug peptide as multiple of OD with original peptide: 2 to 5 fold

B24: p4420 (peptide)
peptide: ELWHRYPC
[10]
  OD at 10 ug peptide as multiple of OD with original peptide: 2 to 5 fold

B25: p4665 (peptide)
peptide: ELWHRAFC
[7]
  OD at 10 ug peptide as multiple of OD with original peptide: < 2 fold
